Experimental findings from patent US5726286 are described below.

Where two headings read alike, the source gives them in different places.

Assay [1] concerns the target human MHC class II β chain (human).
The target is the same in assay [2]. This is another data set of the same source.

For BZLF2/Fc fusion protein, the Plaques/10^6 PBMC (anti-SRBC antibody formation, hemolytic plaque assay) (Plaques/10^6 PBMC) in assay [1] was determined as 0.

IL-4 receptor/Fc fusion protein showed a Plaques/10^6 PBMC (anti-SRBC antibody formation, hemolytic plaque assay) (Plaques/10^6 PBMC) in assay [1] of 788.

In assay [2], Tie/Fc (Fc fusion) displayed a Plaques/10^6 PBMC (anti-SRBC antibody formation, hemolytic plaque assay) (Plaques/10^6 PBMC) of 606.
